Changes are numbered by the printed parent chain.

We go through 1 molecule from PMC9976877, “The Ku complex promotes DNA end-bridging and this function is antagonized by Tel1/ATM kinase”.

Data set [1] concerns the target T1, Ku70-Strep (wild type);Ku80-6xHis (Saccharomyces cerevisiae;Saccharomyces …, UniProt P32807;Q04437 1-602;1-629, |).
T1 sequence 1: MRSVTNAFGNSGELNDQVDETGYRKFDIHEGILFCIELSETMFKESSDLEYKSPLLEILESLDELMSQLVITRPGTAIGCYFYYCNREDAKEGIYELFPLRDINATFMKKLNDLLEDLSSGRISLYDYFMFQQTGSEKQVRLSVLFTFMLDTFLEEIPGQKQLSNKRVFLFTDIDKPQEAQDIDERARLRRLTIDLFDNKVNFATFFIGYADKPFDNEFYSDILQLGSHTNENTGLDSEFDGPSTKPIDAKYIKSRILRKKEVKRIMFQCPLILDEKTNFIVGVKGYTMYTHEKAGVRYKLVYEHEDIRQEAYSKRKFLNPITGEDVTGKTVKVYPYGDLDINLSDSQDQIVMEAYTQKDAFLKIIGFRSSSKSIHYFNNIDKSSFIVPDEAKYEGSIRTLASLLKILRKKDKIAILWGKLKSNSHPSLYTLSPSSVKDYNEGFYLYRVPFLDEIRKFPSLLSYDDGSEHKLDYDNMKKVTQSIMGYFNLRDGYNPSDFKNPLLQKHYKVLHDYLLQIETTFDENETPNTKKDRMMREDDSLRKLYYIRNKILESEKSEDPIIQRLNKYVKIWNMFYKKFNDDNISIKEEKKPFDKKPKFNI
T1 sequence 2: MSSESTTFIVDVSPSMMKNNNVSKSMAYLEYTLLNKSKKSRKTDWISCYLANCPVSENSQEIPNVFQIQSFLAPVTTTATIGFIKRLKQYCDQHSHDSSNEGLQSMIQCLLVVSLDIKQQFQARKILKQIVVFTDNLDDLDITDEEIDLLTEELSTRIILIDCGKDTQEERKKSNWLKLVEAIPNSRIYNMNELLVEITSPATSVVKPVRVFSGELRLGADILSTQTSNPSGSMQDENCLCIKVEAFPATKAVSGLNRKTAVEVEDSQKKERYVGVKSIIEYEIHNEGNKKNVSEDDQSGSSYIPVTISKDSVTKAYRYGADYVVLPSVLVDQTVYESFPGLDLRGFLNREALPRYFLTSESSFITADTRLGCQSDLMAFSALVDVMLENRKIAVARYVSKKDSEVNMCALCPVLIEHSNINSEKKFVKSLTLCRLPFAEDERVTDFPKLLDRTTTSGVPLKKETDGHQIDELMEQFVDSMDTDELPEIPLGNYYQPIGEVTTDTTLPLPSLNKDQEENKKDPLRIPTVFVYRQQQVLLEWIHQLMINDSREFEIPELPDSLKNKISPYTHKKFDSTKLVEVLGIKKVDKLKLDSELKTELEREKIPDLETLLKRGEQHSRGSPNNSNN
In words: EMSA; 13 nM DNA; 0-104 nM Ku; shift detectable at 4-fold ratio of Ku to DNA; 2 mM MgCl2; EMSA: 25 mM Tris/HCl pH 7.5, 100 mM NaCl, 2 mM MgCl2, 7% glycerol, 1 mM DTT, 30 min on ice; 6% native gel at 4 °C. The note with it: protein: recombinant;recombinant; tags: Strep;6xHis; copies: 1;1; label: 32P; blunt. For orientation: Mobility shift assays separate free from complexed probe on a gel.

Data set [2] has as its target T2, Ku70 C85Y-Strep;Ku80-6xHis (Saccharomyces cerevisiae;Saccharomyces …, UniProt P32807;Q04437 1-602;1-629, C85Y|).
T2 sequence 1: T1 sequence 1 with C85Y
T2 sequence 2: T1 sequence 2
The data set can be described thus: EMSA; 13 nM DNA; 0-104 nM Ku; shift detectable at 2-fold ratio of Ku to DNA (stronger than wild type); 2 mM MgCl2; EMSA: 25 mM Tris/HCl pH 7.5, 100 mM NaCl, 2 mM MgCl2, 7% glycerol, 1 mM DTT, 30 min on ice; 6% native gel at 4 °C. Particulars: protein: recombinant;recombinant; tags: Strep;6xHis; copies: 1;1; label: 32P; blunt.

B1: 21 bp blunt-ended dsDNA (dsDNA)
DNA 1: CCGCACACCCACACACCAGTG
DNA 2: CACTGGTGTGTGGGTGTGCGG
In the case of B1, the binding result in data set [1] and in data set [2] was “binds” throughout.
